Measurements published in PMC3784563.

Biological target: Argonaute 1 (Ago1) (human (endogenous in PC-3, LNCaP, HCT116)) (UniProt Q9UL18)
Assay: co-IP; nuclear extracts from PC-3 cells; IP with anti-Ago1 (Wako 2A7) or anti-Ago2 (Wako 4G8), immunoblot for RNAP II; 10 mM Tris-HCl pH 8.0, 150 mM NaCl, 1 mM EDTA, 1 mM DTT, 0.1% NP-40, overnight at 4°C, protein G dynabeads; also done after transfection with siControl, siDicer or siDrosha (50 nM, 72 hrs)

- decrease of the ratio of bound RNAP II to nuclear Ago1 after siDicer: 70%
Substance: RNA polymerase II (from UniProt P24928 1-1970) (complex)
